In patent US20230111363A1 (LMMUNOMETABOLISM DEVELOPMENT, published 2023):
Numbering of substitutions follows the chain as printed.

B1: anti-human MCT1 antibody Ab1 (antibody, human IgG1, kappa, V domains shown)
VH: QVQLVQSGAEVKKPGASVKVSCTVSGFSLTNYHLQWVRQAPGQGLEWMGFIRSSGNTEYNSEFKSRVTMTRDTSTSTVYMELSSLRSEDTAVYYCARNSWYHGTYYSPGYYVMDAWGQGTLVTVSS
VL: EIVLTQSPGTLSLSPGERATLSCKGSQNINNYLAWYQQKPGQAPRLLIYNRHNLQTGIPDRFSGSGSGTDFTLTISRLEPEDFAVYYCYQYSDGYTFGGGTKVEIKR
notes: human IgG1 effector null (IgG1EN) backbone; also called humanized Framework antibody Ab1
B2: anti-human MCT1 antibody Ab7 (antibody, human IgG1, kappa, V domains shown)
VH: B1 VH with F27R, L29R, S99R
VL: B1 VL with N30E
notes: IgG1EN backbone
B3: anti-human MCT1 antibody Ab8 (antibody, human IgG1, kappa, V domains shown)
VH: B1 VH with F27R, E58I, S99R
VL: B1 VL with N30E
notes: IgG1EN backbone
B4: anti-human MCT1 antibody Ab9 (antibody, human IgG1, kappa, V domains shown)
VH: B1 VH with F27R, L34I, S99R
VL: B1 VL with N30E
notes: IgG1EN backbone
B5: anti-human MCT1 antibody Ab10 (antibody, human IgG1, kappa, V domains shown)
VH: B1 VH with F27R, N31G, S99R
VL: B1 VL with N30E
notes: IgG1EN backbone
B6: anti-human MCT1 antibody Ab11 (antibody, human IgG1, kappa, V domains shown)
VH: B1 VH with F27R, S99R, Y101H
VL: B1 VL with N30E
notes: IgG1EN backbone
B7: anti-human MCT1 antibody Ab12 (antibody, human IgG1, kappa, V domains shown)
VH: B1 VH with F27R, Q35V, S99R
VL: B1 VL with N30E
notes: IgG1EN backbone
B8: anti-human MCT1 antibody Ab13 (antibody, human IgG1, kappa, V domains shown)
VH: B1 VH with F27R, S99R, Y101R
VL: B1 VL with N30E
notes: IgG1EN backbone
B9: anti-human MCT1 antibody Ab14 (antibody, human IgG1, kappa, V domains shown)
VH: B1 VH with F27R, S99R, A115P
VL: B1 VL with N30E
notes: IgG1EN backbone
B10: anti-human MCT1 antibody Ab15 (antibody, human IgG1, kappa, V domains shown)
VH: B1 VH with F27R, S99L
VL: B1 VL with N30E
notes: IgG1EN backbone
B11: anti-human MCT1 antibody Ab16 (antibody, human IgG1, kappa, V domains shown)
VH: B1 VH with V24R, F27R, S99R
VL: B1 VL with N30E
notes: IgG1EN backbone
B12: anti-human MCT1 antibody Ab17 (antibody, human IgG1, kappa, V domains shown)
VH: B1 VH with F27R, Y32I, S99R
VL: B1 VL with N30E
notes: IgG1EN backbone
B13: anti-human MCT1 antibody Ab18 (antibody, human IgG1, kappa, V domains shown)
VH: B1 VH with F27R, Q35G, S99R
VL: B1 VL with N30E
notes: IgG1EN backbone
B14: anti-human MCT1 antibody Ab19 (antibody, human IgG1, kappa, V domains shown)
VH: B1 VH with F27R, S53R, S99R
VL: B1 VL with N30E
notes: IgG1EN backbone
B15: anti-human MCT1 antibody Ab20 (antibody, human IgG1, kappa, V domains shown)
VH: B1 VH with F27R, S99L
VL: B1 VL
notes: IgG1EN backbone
B16: anti-human MCT1 antibody Ab21 (antibody, human IgG1, kappa, V domains shown)
VH: B1 VH with F27R, S99R, A115P
VL: B1 VL
notes: IgG1EN backbone
B17: anti-human MCT1 antibody Ab2 (antibody, human IgG1, kappa, V domains shown)
VH: B1 VH
VL: DIQMTQSPSTLSASVGDRVTITCKGSQNINNYLAWYQQKPGKAPKLLIYNRHNLQTGVPSRFSGSGSGTEFTLTISSLQPDDFATYYCYQYSDGYTFGGGTKVEIKR
notes: IgG1EN backbone
B18: anti-human MCT1 antibody Ab3 (antibody, human IgG1, kappa, V domains shown)
VH: EVQLVESGGGLVQPGGSLRLSCTVSGFSLTNYHLQWVRQAPGKGLEWVGFIRSSGNTEYNSEFKSRFTISRDDSKNSLYLQMNSLKTEDTAVYYCARNSWYHGTYYSPGYYVMDAWGQGTLVTVSS
VL: B17 VL
notes: IgG1EN backbone
B19: anti-human MCT1 antibody Ab4 (antibody, human IgG1, kappa, V domains shown)
VH: B18 VH with Q13K, S77T
VL: B17 VL with T10S, E70D, D81E
notes: IgG1EN backbone
B20: anti-human MCT1 antibody Ab5 (antibody, human IgG1, kappa, V domains shown)
VH: EVQLVQSGAEVKKPGESLKISCTVSGFSLTNYHLQWVRQMPGKGLEWMGFIRSSGNTEYNSEFKSQVTISADKSISTAYLQWSSLKASDTAMYYCARNSWYHGTYYSPGYYVMDAWGQGTLVTVSS
VL: B17 VL with T10S, E70D, D81E
notes: IgG1EN backbone

target: T1, human monocarboxylate transporter 1 (MCT1) (human, UniProt P53985 1-500); assay: competition MSD binding assay, antibody titrated with HEK WT cells expressing MCT1, apparent KD, 37 C, average of triplicate
T1 construct: Multi-pass transmembrane transporter, endogenous on HEK WT / HEK293T cells and on primary human T and B cells in the assays; also called human MCT1; SLC16A1
T1 sequence: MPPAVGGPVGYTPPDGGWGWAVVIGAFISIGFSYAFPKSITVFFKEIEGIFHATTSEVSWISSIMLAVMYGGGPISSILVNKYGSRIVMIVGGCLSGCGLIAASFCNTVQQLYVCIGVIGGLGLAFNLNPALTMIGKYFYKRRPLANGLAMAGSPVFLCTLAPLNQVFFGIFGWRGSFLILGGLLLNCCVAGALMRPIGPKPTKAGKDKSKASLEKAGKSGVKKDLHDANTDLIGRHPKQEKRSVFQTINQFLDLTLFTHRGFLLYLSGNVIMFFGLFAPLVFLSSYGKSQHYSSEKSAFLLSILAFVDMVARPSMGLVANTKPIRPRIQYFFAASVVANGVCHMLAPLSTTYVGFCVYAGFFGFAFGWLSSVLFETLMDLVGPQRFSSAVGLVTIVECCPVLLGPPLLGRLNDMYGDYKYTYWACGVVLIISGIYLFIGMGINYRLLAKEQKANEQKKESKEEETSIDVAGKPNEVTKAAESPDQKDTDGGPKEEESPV
Description: Plates were then washed 3 times with PBST. […] Plates were washed 3 times with PBST.

Binder	Kd
B1	1.23 nM

target: T1, human monocarboxylate transporter 1 …; assay: competition MSD binding assay, antibody titrated with HEK WT cells expressing MCT1, apparent KD, screening at 25 C
Description: The mix was incubated at 37° C. for 1-2 days. After incubation, the incubated samples were spun down for 5 min at 500×g to remove cells. A 96-well multi-array plate (Meso Scale Diagnostics, Cat. #L15XA-3) was coated at 4° C. overnight with 1 μg/mL of goat anti human FC in phosphate buffered saline (PBS). Following coating, plates were washed 3 times with 150 μL PBST (PBS with 0.05% Tween 20) and blocked with 150 μL/well of PBS 3% blocker A buffer (Cat #R93BA-1) at 25° C. for 1 hr. Plates were then washed 3 times with PBST. 50 μL of the preincubated antibody: cell dilution series was transferred to the wells and incubated at 25° C. with 700 rpm shaking for 1 hr. Plates were washed 3 times with PBST. Then 100 μL of 1 μg/mL anti-human kappa-biotin antibody (Cat. #2060-08) was added, and plates were incubated at 25° C. with 700 rpm shaking […]. Plates were washed 3 times with PBST, followed by addition of 100 μL of 1 μg/mL MSD Sulfo-tag streptavidin antibody (Meso Scale Diagnostics Cat. #R32 AD1), and plates were incubated at 25° C. with 700 rpm shaking for 1 hr. Plates were washed 3 times with PBST, 150 μL/well of 1× Read Buffer T was added to the wells and analyzed on a SECTOR® Imager 6000 (Meso Scale Diagnostics) 15 min after buffer addition. The apparent KD is determined by fitting a sigmoidal curve to the electrochemiluminescence (ECL) response vs. log (MCT1 receptor concentration) using assay development tool kit graphed with normalized ECL values.

Binder	Kd
B1	5.81 nM
B2	0.47 nM
B3	0.55 nM
B4	4.56 nM
B5	0.85 nM
B6	1.91 nM
B7	1.64 nM
B8	2.82 nM
B9	1.31 nM
B10	1.96 nM
B11	0.71 nM
B12	1.04 nM
B13	5.14 nM
B14	0.46 nM
B15	0.64 nM
B16	0.85 nM

target: T1, human monocarboxylate transporter 1 …; assay: cell-based or functional assay

Binder	IC50 of inhibition of CD4 T cell proliferation	IC50 of inhibition of CD8 T cell proliferation
B1	59 nM	42 nM
B2	2 nM	4 nM
B3	3 nM	3 nM
B4	4 nM	5 nM
B5	3 nM	7 nM
B6	4 nM	5 nM
B7	4 nM	5 nM
B8	3 nM	4 nM
B9	5 nM	6 nM
B10	5 nM	8 nM
B11	5 nM	3 nM
B12	5 nM	2 nM
B13	6 nM	2 nM
B14	5 nM	3 nM
B15	13 nM	6 nM
B16	6 nM	4 nM

target: T1, human monocarboxylate transporter 1 …; assay: cell-based MCT1 binding

Binder	binding result
B17	binds
B18	binds
B19	binds
B20	binds

target: T1, human monocarboxylate transporter 1 …; assay: cell-based or functional assay; remark: another data set of the same source

Binder	IC50 of inhibition of MCT1 mediated transport (bromopyruvate assay, HEK293T cells)
B1	164 nM
B2	28 nM
B3	21 nM
B4	35 nM
B5	39 nM
B6	35 nM
B7	39 nM
B8	42 nM
B9	40 nM
B10	48 nM
B11	31 nM
B12	38 nM
B13	41 nM
B14	35 nM
B15	83 nM
B16	50 nM
